Measurements: patent US20140227729

Legend:
[1] = target: T1, Ndm, two-subunit N-demethylase component purified from Pseudomonas putida CBB5 (UniProt H9N289)
T1 sequence 1: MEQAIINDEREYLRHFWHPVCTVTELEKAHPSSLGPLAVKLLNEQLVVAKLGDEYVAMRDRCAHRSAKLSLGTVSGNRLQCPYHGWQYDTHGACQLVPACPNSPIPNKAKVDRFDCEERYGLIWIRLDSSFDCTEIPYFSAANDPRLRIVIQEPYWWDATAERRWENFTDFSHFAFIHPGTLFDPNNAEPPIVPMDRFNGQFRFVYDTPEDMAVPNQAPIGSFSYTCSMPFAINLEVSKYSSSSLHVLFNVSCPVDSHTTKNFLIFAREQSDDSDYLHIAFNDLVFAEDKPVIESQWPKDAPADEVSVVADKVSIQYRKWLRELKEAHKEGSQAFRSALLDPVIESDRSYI
T1 sequence 2: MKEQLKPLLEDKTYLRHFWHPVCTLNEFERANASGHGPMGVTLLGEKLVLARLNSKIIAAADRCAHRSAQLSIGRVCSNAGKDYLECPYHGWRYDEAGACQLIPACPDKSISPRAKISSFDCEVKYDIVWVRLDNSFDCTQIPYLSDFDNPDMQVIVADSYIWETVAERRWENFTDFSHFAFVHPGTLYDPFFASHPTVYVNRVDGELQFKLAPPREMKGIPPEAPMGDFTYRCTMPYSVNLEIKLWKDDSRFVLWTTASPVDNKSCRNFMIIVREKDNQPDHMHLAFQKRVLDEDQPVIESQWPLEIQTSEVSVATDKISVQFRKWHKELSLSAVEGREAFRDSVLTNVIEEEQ

NdmB-His6, H9N290 = target: T2, NdmB-His6, H9N290
T2 chain: T1 sequence 2

NdmA-His6, H9N289 = target: T3, NdmA-His6, H9N289
T3 chain: T1 sequence 1

[2] = target: T4, Ndm, two-subunit N-demethylase component purified from Pseudomonas putida CBB5, H9N289
T4 chain 1: T1 sequence 1
T4 chain 2: T1 sequence 2

**Q.** Which N-demethylase activity [1] does the source give for “Ccr, reductase component with cytochrome c reductase activity (partially purified fraction from Pseudomonas putida CBB5)” here?
**A.** No N-demethylase activity was observed when purified Ndm was assayed without the Ccr fraction

B1: His6-NdmD (protein)
chain: HHHHHHSSGLVPRGSHMNKLDVNQWFPIATTEDLPKRHVFHATLLGQEMAIWRDDSGSVNAWENRCPHRGLNTLGANTGNELRCQYHGWTYESGTGGCTFVPAHRDAPPPNAARVNTFPVREKHGFIWTTLGQPPGEPISILDDAQLVNAVKTNLHSVVIDADIDGVVSVLRQNLSAFIDVFGAASAEDLHLKSMLQDRGILVTRSGSIAIHFYMQRSTISKCVVHAQVLTPGRPGYELQKNYSYAMNVIRRAAEAVATDLISITDISDQTIEKLEVVRENMTKAPPTHYICEVVTRTQETGDINSYWLKPIGYPLPAFSPGMHISITTPEGSIRQYSLVNGPDERESFIIGVKKEIGSRGGSRSMHEDVKVGTQLKVTLPRNGFPLVQTRKHPILVAGGIGITPILCMAGALDQQGSSYEIHYFARAFEHVPFQDRLTALGDRLNVHLGLGPDETRAKLPDIMEIHNAQDVDVYTCGPQPMIETVSAVALAHGIAEESIRFEFFSKKNDVPVSDEEYEVELKKTGQIFTVSPGSTLLQACLDNDVRIEASCEQGVCGTCITPVVSGDLEHHDTYLSKKERESGKWIMPCVSRCKSKKIVLDL
**Q.** What does the source list for B1?
**A.** N-demethylation of theobromine to 7-methylxanthine (HPLC) (NdmB-His6, H9N290): NdmB-His6 with His6-NdmD, theobromine, NADH, and Fe^2+ resulted in stoichiometric demethylation at N3 of theobromine to 7-methylxanthine; N-demethylation of caffeine to theobromine (HPLC) (NdmA-His6, H9N289): when NdmA-His6 was incubated with His6-NdmD, caffeine, NADH, and exogenous Fe^2+, caffeine was stoichiometrically demethylated at N1 to theobromine

B2: Reductase of Pseudomonas sp. 9816 naphthalene dioxygenase (protein)
chain: MELLIQPNNRIIPFSAGANLLEVLRENGVAISYSCLSGRCGTCRCRVIDGSVIDSGAENGQSNLTDKQYVLACQSVLTGNCAIEVPEADEIVTHPARIIKGTVVAVESPTHDIRRLRVRLSKPFEFSPGQYATLQFSPEHARPYSMAGLPDDQEMEFHIRKVPGGRVTEYVFEHVREGTSIKLSGPLGTAYLRQKHTGPMLCVGGGTGLAPVLSIVRGALKSGMTNPILLYFGVRSQQDLYDAERLHKLAADHPQLTVHTVIATGPINEGQRAGLITDVIEKDILSLAGWRAYLCGAPAMVEALCTVTKHLGISPEHIYADAFYPGGI
**Q.** B2 was tested. Which N-demethylase activity [2] did it give?
**A.** Ndm did not function in the presence of the reductase and ferredoxin components of Pseudomonas sp. 9816 naphthalene dioxygenase

B3: Spinach ferredoxin reductase (protein)
chain: QIASDVEAPPPAPAKVEKHSKKMEEGITVNKFKPKTPYVGRCLLNTKITGDDAPGETWHMVFSHEGEIPYREGQSVGVIPDGEDKNGKPHKLRLYSIASSALGDFGDAKSVSLCVKRLIYTNDAGETIKGVCSNFLCDLKPGAEVKLTGPVGKEMLMPKDPNATIIMLGTGTGIAPFRSFLWKMFFEKHDDYKFNGLAWLFLGVPTSSSLLYKEEFEKMKEKAPDNFRLDFAVSREQTNEKGEKMYIQTRMAQYAVELWEMLKKDNTYFYMCGLKGMEKGIDDIMVSLAAAEGIDWIEYKRQLKKAEQWNVEVY
**Q.** For B3, which N-demethylase activity [2] is on record?
**A.** Ndm did not couple with ferredoxin reductase plus ferredoxin from spinach
